Patent US20240002531A1 (ONO PHARMACEUTICAL, published 2024)

Key:
[1] = target: T1, HER2 peptide 613-632 (amino acids 613 to 632 of human HER2) (human); test: ELISA, peptide coated at 10 µg/ml, antibody 10 µg/ml
T1 construct: Synthetic peptide
T1 peptide: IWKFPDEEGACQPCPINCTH

[2] = target: T2, HER2 peptide p603-622 (amino acids 603 to 622 of human HER2) (human); test: SPR Biacore, mAb on chip, peptide analyte, 1:1 fit;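 also: all binding measurements run at 25 °C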
T2 construct: Synthetic peptide; also called wild-type HER2 peptide
T2 peptide: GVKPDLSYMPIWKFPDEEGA

HER2 peptide p614-619 = target: T3, HER2 peptide p614-619 (human); test: SPR Biacore, mAb on chip, peptide analyte, 1:1 fit;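 also: all binding measurements run at 25 °C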
T3 peptide: WKFPDE

HER2 peptide p614-620 = target: T4, HER2 peptide p614-620 (human); test: SPR Biacore, mAb on chip, peptide analyte, 1:1 fit;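 also: all binding measurements run at 25 °C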
T4 peptide: WKFPDEE

HER2 peptide p614-622 = target: T5, HER2 peptide p614-622 (human); test: SPR Biacore, mAb on chip, peptide analyte, 1:1 fit;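 also: all binding measurements run at 25 °C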
T5 peptide: WKFPDEEGA

HER2 peptide p613-618 = target: T6, HER2 peptide p613-618 (human); test: SPR Biacore, mAb on chip, peptide analyte, 1:1 fit;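 also: all binding measurements run at 25 °C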
T6 peptide: IWKFPD

HER2 peptide p613-619 = target: T7, HER2 peptide p613-619 (human); test: SPR Biacore, mAb on chip, peptide analyte, 1:1 fit;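 also: all binding measurements run at 25 °C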
T7 peptide: IWKFPDE

HER2 peptide p613-620 = target: T8, HER2 peptide p613-620 (human); test: SPR Biacore, mAb on chip, peptide analyte, 1:1 fit
T8 peptide: IWKFPDEE

HER2 peptide p613-621 = target: T9, HER2 peptide p613-621 (human); test: SPR Biacore, mAb on chip, peptide analyte, 1:1 fit
T9 peptide: IWKFPDEEG

HER2 peptide p612-618 = target: T10, HER2 peptide p612-618 (human); test: SPR Biacore, mAb on chip, peptide analyte, 1:1 fit
T10 construct: also called PIWKFPD
T10 peptide: PIWKFPD

HER2 peptide p612-620 = target: T11, HER2 peptide p612-620 (human); test: SPR Biacore, mAb on chip, peptide analyte, 1:1 fit
T11 peptide: PIWKFPDEE

HER2 peptide p612-621 = target: T12, HER2 peptide p612-621 (human); test: SPR Biacore, mAb on chip, peptide analyte, 1:1 fit
T12 peptide: PIWKFPDEEG

HER2 peptide p612-622 = target: T13, HER2 peptide p612-622 (human); test: SPR Biacore, mAb on chip, peptide analyte, 1:1 fit
T13 peptide: PIWKFPDEEGA

HER2 peptide p611-618 = target: T14, HER2 peptide p611-618 (human); test: SPR Biacore, mAb on chip, peptide analyte, 1:1 fit
T14 peptide: MPIWKFPD

HER2 peptide p611-619 = target: T15, HER2 peptide p611-619 (human); test: SPR Biacore, mAb on chip, peptide analyte, 1:1 fit
T15 peptide: MPIWKFPDE

HER2 peptide p611-620 = target: T16, HER2 peptide p611-620 (human); test: SPR Biacore, mAb on chip, peptide analyte, 1:1 fit
T16 peptide: MPIWKFPDEE

HER2 peptide p611-621 = target: T17, HER2 peptide p611-621 (human); test: SPR Biacore, mAb on chip, peptide analyte, 1:1 fit
T17 peptide: MPIWKFPDEEG

HER2 peptide p611-622 = target: T18, HER2 peptide p611-622 (human); test: SPR Biacore, mAb on chip, peptide analyte, 1:1 fit
T18 peptide: MPIWKFPDEEGA

HER2 peptide p610-618 = target: T19, HER2 peptide p610-618 (human); test: SPR Biacore, mAb on chip, peptide analyte, 1:1 fit
T19 peptide: YMPIWKFPD

HER2 peptide p610-620 = target: T20, HER2 peptide p610-620 (human); test: SPR Biacore, mAb on chip, peptide analyte, 1:1 fit
T20 peptide: YMPIWKFPDEE

HER2 peptide p610-621 = target: T21, HER2 peptide p610-621 (human); test: SPR Biacore, mAb on chip, peptide analyte, 1:1 fit
T21 peptide: YMPIWKFPDEEG

HER2 peptide p609-618 = target: T22, HER2 peptide p609-618 (human); test: SPR Biacore, mAb on chip, peptide analyte, 1:1 fit
T22 peptide: SYMPIWKFPD

HER2 peptide p609-620 = target: T23, HER2 peptide p609-620 (human); test: SPR Biacore, mAb on chip, peptide analyte, 1:1 fit
T23 peptide: SYMPIWKFPDEE

HER2 peptide p609-621 = target: T24, HER2 peptide p609-621 (human); test: SPR Biacore, mAb on chip, peptide analyte, 1:1 fit
T24 peptide: SYMPIWKFPDEEG

HER2 peptide p609-622 = target: T25, HER2 peptide p609-622 (human); test: SPR Biacore, mAb on chip, peptide analyte, 1:1 fit
T25 peptide: SYMPIWKFPDEEGA

B1: H2Mab-214 antibody (antibody, V domains shown)
VH: QVTLKESGPGILQPSQTLSLTCSFSGFSLSTSGMGVSWIRQPSGKGLEWLAHIFWDDDKRYNPSLKSRLTISKDTSRNKVFLKITSVDTADTATYYCARRVVATDWYFDVWGAGTTVTVSS
VL: DIVLTQSPASLAVSLGQRATISCRASESVEYYGTTLMQWYQQKPGQPPKLLIYAASKVESGVPARFSGSGSGTDFSLNIHPVEEDDVAMYFCQQSRKVPLTFGAGTKLELKR
notes: Mouse monoclonal from a hybridoma (immunogen HER2ec made in LN229 cells); also called antibody of the present invention
- binding result [1]: binds
- Kd [2]: 22.8 nM
- koff [2]: 0.00534 s⁻¹
- Kd (HER2 peptide p614-619): 8.54 µM
- koff (HER2 peptide p614-619): 0.0119 s⁻¹
- kon (HER2 peptide p614-619): 1400 M⁻¹ s⁻¹
- Kd (HER2 peptide p614-620): 41.2 µM
- koff (HER2 peptide p614-620): 0.0152 s⁻¹
- kon (HER2 peptide p614-620): 370 M⁻¹ s⁻¹
- Kd (HER2 peptide p614-622): 26.4 µM
- koff (HER2 peptide p614-622): 0.0115 s⁻¹
- kon (HER2 peptide p614-622): 435 M⁻¹ s⁻¹
- Kd (HER2 peptide p613-618): 915 nM
- koff (HER2 peptide p613-618): 0.013 s⁻¹
- kon (HER2 peptide p613-618): 14200 M⁻¹ s⁻¹
- Kd (HER2 peptide p613-619): 1610 nM
- koff (HER2 peptide p613-619): 0.0136 s⁻¹
- kon (HER2 peptide p613-619): 8450 M⁻¹ s⁻¹
- Kd (HER2 peptide p613-620): 2310 nM
- koff (HER2 peptide p613-620): 0.01 s⁻¹
- kon (HER2 peptide p613-620): 4340 M⁻¹ s⁻¹
- Kd (HER2 peptide p613-621): 13 µM
- koff (HER2 peptide p613-621): 0.00955 s⁻¹
- kon (HER2 peptide p613-621): 736 M⁻¹ s⁻¹
- Kd (HER2 peptide p612-618): 27.7 nM
- koff (HER2 peptide p612-618): 0.013 s⁻¹
- kon (HER2 peptide p612-618): 467000 M⁻¹ s⁻¹
- Kd (HER2 peptide p612-620): 23.7 nM
- koff (HER2 peptide p612-620): 0.0179 s⁻¹
- kon (HER2 peptide p612-620): 754000 M⁻¹ s⁻¹
- Kd (HER2 peptide p612-621): 27.9 nM
- koff (HER2 peptide p612-621): 0.024 s⁻¹
- kon (HER2 peptide p612-621): 859000 M⁻¹ s⁻¹
- Kd (HER2 peptide p612-622): 39.7 nM
- koff (HER2 peptide p612-622): 0.0244 s⁻¹
- kon (HER2 peptide p612-622): 615000 M⁻¹ s⁻¹
- Kd (HER2 peptide p611-618): 21 nM
- koff (HER2 peptide p611-618): 0.0141 s⁻¹
- kon (HER2 peptide p611-618): 669000 M⁻¹ s⁻¹
- Kd (HER2 peptide p611-619): 11.1 nM
- koff (HER2 peptide p611-619): 0.0083 s⁻¹
- kon (HER2 peptide p611-619): 747000 M⁻¹ s⁻¹
- Kd (HER2 peptide p611-620): 17.6 nM
- koff (HER2 peptide p611-620): 0.00836 s⁻¹
- kon (HER2 peptide p611-620): 475000 M⁻¹ s⁻¹
- Kd (HER2 peptide p611-621): 16.8 nM
- koff (HER2 peptide p611-621): 0.00961 s⁻¹
- kon (HER2 peptide p611-621): 571000 M⁻¹ s⁻¹
- Kd (HER2 peptide p611-622): 23.9 nM
- koff (HER2 peptide p611-622): 0.0108 s⁻¹
- kon (HER2 peptide p611-622): 451000 M⁻¹ s⁻¹
- Kd (HER2 peptide p610-618): 14.5 nM
- koff (HER2 peptide p610-618): 0.0121 s⁻¹
- kon (HER2 peptide p610-618): 837000 M⁻¹ s⁻¹
- Kd (HER2 peptide p610-620): 8.68 nM
- koff (HER2 peptide p610-620): 0.00502 s⁻¹
- kon (HER2 peptide p610-620): 579000 M⁻¹ s⁻¹
- Kd (HER2 peptide p610-621): 8.57 nM
- koff (HER2 peptide p610-621): 0.00519 s⁻¹
- kon (HER2 peptide p610-621): 679000 M⁻¹ s⁻¹
- Kd (HER2 peptide p609-618): 14.3 nM
- koff (HER2 peptide p609-618): 0.0107 s⁻¹
- kon (HER2 peptide p609-618): 747000 M⁻¹ s⁻¹
- Kd (HER2 peptide p609-620): 6.89 nM
- koff (HER2 peptide p609-620): 0.00445 s⁻¹
- kon (HER2 peptide p609-620): 645000 M⁻¹ s⁻¹
- Kd (HER2 peptide p609-621): 8.06 nM
- koff (HER2 peptide p609-621): 0.00465 s⁻¹
- kon (HER2 peptide p609-621): 577000 M⁻¹ s⁻¹
- Kd (HER2 peptide p609-622): 9.37 nM
- koff (HER2 peptide p609-622): 0.00526 s⁻¹
- kon (HER2 peptide p609-622): 561000 M⁻¹ s⁻¹

B2: H2Mab-250 antibody (antibody, V domains shown)
VH: EVQLVESGGGLVQPGGSLKLSCAASGFTFSNYGMSWVRQTPDRRLELVATINNNGGGTYYPDSVKGRFTISRDNAKNTLYLQMSSLKSEDTAMYYCTSPGLLWDAWGAGTTVTVSS
VL: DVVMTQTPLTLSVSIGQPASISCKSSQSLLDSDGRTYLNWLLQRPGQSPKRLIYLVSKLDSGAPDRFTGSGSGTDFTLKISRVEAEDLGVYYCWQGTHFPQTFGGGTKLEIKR
notes: as for B1
- binding result [1]: binds
